One block for each binder: values may come before it.
Legend:
[1] = target: T1, Core_NINN-es_KEEK; assay: two-hybrid library CCmax; details: mean of both orientations;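 also: natural log of median RNA to DNA barcode read ratio; higher means stronger binding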
T1 chain: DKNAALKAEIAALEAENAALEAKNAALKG

[2] = target: T2, 4H2937-bA; assay: two-hybrid library CCNG1;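 also: natural log of median RNA to DNA barcode read ratio; higher means stronger binding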
T2 chain: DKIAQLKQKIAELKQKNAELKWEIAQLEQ

[3] = target: T3, 4H2883-bA; assay: two-hybrid library CCNG1;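 also: natural log of median RNA to DNA barcode read ratio; higher means stronger binding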
T3 chain: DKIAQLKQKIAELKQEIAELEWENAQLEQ

[4] = target: T4, 4H491-bA; assay: two-hybrid library CCNG1;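 also: natural log of median RNA to DNA barcode read ratio; higher means stronger binding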
T4 chain: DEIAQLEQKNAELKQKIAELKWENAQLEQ

[5] = target: T5, 4H342-bA; assay: two-hybrid library CCNG1;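 also: natural log of median RNA to DNA barcode read ratio; higher means stronger binding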
T5 chain: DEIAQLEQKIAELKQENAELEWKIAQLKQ

[6] = target: T6, 4H19-bA; assay: two-hybrid library CCNG1;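 also: natural log of median RNA to DNA barcode read ratio; higher means stronger binding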
T6 chain: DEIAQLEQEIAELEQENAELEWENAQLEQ

[7] = target: T7, 4H2944-bA; assay: two-hybrid library CCNG1
T7 chain: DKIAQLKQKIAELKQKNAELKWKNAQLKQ

[8] = target: T8, 4H2696-bA; assay: two-hybrid library CCNG1
T8 chain: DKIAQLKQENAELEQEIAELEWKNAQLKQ

[9] = target: T9, 4H48-bA; assay: two-hybrid library CCNG1
T9 chain: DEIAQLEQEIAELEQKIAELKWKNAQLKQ

[10] = target: T10, P6SC2R; assay: two-hybrid library CCNG1
T10 chain: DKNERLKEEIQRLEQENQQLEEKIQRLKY

[11] = target: T10, P6SC2R; assay: two-hybrid library CCmax
[12] = target: T11, O2; assay: two-hybrid library CC0; details: mean of both orientations
T11 chain: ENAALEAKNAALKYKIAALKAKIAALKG

[13] = target: T12, O9; assay: two-hybrid library CC0; details: mean of both orientations
T12 chain: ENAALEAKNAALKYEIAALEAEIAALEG

[14] = target: T13, O10; assay: two-hybrid library CC0; details: mean of both orientations
T13 chain: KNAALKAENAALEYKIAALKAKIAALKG

[15] = target: T14, O6; assay: two-hybrid library CC0; details: mean of both orientations
T14 chain: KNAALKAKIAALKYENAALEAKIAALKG

[16] = target: T15, O7; assay: two-hybrid library CC0; details: mean of both orientations
T15 chain: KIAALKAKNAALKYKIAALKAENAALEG

[17] = target: T16, O13; assay: two-hybrid library CC0; details: mean of both orientations
T16 chain: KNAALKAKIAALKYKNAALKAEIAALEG

[18] = target: T17, O3; assay: two-hybrid library CC0; details: mean of both orientations
T17 chain: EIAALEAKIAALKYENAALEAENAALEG

[19] = target: T18, O14; assay: two-hybrid library CC0; details: mean of both orientations
T18 chain: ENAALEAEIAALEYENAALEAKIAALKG

[20] = target: T19, O16; assay: two-hybrid library CC0; details: mean of both orientations
T19 chain: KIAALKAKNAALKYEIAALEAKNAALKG

[21] = target: T20, O5; assay: two-hybrid library CC0; details: mean of both orientations
T20 chain: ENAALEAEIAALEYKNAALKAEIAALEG

[22] = target: T21, O1; assay: two-hybrid library CC0; details: mean of both orientations
T21 chain: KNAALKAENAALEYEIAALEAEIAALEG

[23] = target: T22, O12; assay: two-hybrid library CC0; details: mean of both orientations
T22 chain: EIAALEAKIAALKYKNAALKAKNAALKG

[24] = target: T23, O15; assay: two-hybrid library CC0; details: mean of both orientations
T23 chain: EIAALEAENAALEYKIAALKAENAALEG

[25] = target: T24, O4; assay: two-hybrid library CC0; details: mean of both orientations
T24 chain: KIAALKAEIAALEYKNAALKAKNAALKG

[26] = target: T25, O11; assay: two-hybrid library CC0; details: mean of both orientations
T25 chain: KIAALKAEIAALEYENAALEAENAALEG

[27] = target: T26, O8; assay: two-hybrid library CC0; details: mean of both orientations
T26 chain: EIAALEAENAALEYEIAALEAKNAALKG

[28] = target: T27, Core_NNNI-es_KEEE; assay: two-hybrid library CCmax; details: mean of both orientations
T27 chain: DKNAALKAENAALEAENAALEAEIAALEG

[29] = target: T28, Core_NNNI-es_KEKK; assay: two-hybrid library CCmax; details: mean of both orientations
T28 chain: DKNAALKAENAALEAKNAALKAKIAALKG

[30] = target: T29, P2-AA; assay: two-hybrid library CCmax; details: mean of both orientations
T29 chain: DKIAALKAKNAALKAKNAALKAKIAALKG

[31] = target: T30, P2-AA-1HGe-D; assay: two-hybrid library CCmax; details: mean of both orientations
T30 chain: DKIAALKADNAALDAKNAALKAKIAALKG

[32] = target: T31, P2-AA-1HGe-T; assay: two-hybrid library CCmax; details: mean of both orientations
T31 chain: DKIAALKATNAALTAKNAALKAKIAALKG

[33] = target: T32, P2-AA-1HGe-M; assay: two-hybrid library CCmax; details: mean of both orientations
T32 chain: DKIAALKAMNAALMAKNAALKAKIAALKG

[34] = target: T33, P2-AA-1HGe-S; assay: two-hybrid library CCmax; details: mean of both orientations
T33 chain: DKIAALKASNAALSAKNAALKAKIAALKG

[35] = target: T34, P2-AA-1HGe-Q; assay: two-hybrid library CCmax; details: mean of both orientations
T34 chain: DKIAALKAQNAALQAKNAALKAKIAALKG

[36] = target: T35, P2-AA-1HGe-A; assay: two-hybrid library CCmax; details: mean of both orientations
T35 chain: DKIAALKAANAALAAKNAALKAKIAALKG

[37] = target: T36, Core_NNNN-es_KKEK; assay: two-hybrid library CCmax; details: mean of both orientations
T36 chain: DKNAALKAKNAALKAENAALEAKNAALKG

[38] = target: T37, Core_NNIN-es_KEEK; assay: two-hybrid library CCmax; details: mean of both orientations
T37 chain: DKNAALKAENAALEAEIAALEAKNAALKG

[39] = target: T38, Core_NNNN-es_KEKK; assay: two-hybrid library CCmax; details: mean of both orientations
T38 chain: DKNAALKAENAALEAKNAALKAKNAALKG

[40] = target: T39, Core_IINN-es_KKEK; assay: two-hybrid library CCmax; details: mean of both orientations
T39 chain: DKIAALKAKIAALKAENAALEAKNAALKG

[41] = target: T40, Core_NIIN-es_KEEK; assay: two-hybrid library CCmax; details: mean of both orientations
T40 chain: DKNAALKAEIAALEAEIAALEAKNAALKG

[42] = target: T41, Core_NINN-es_KKEE; assay: two-hybrid library CCmax; details: mean of both orientations
T41 chain: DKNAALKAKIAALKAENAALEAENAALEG

Binder: DENAALEAKIAALKAKNAALKAENAALEG [Core_NINN-es_EKKE]
- interaction score [1]: 1.86

Binder: DEIAQLEQEIAELEQENAELEWENAQLEQ [4H19-bA]
- interaction score [2]: 1.86
- interaction score [3]: -0.0858
- interaction score [4]: -1.22
- interaction score [5]: -0.577
- interaction score [6]: -0.446
- interaction score [7]: 2.54
- interaction score [8]: -1.13
- interaction score [9]: -0.828

Binder: DENSQLEEKISQLKQKNSRLKEEIQRLEY [P5SC1Q]
- interaction score [10]: 1.2
- interaction score [11]: 1.06

Binder: KNAALKAENAALEYEIAALEAEIAALEG [O1]
- interaction score [12]: 1.37
- interaction score [13]: -2.49
- interaction score [14]: -0.97
- interaction score [15]: -2.76
- interaction score [16]: -2.69
- interaction score [17]: -2.57
- interaction score [18]: -2.76
- interaction score [19]: -2.71
- interaction score [20]: -2.65
- interaction score [21]: -2.77
- interaction score [22]: -2.74
- interaction score [23]: -2.64
- interaction score [24]: -2.7
- interaction score [25]: -2.68
- interaction score [26]: -2.7
- interaction score [27]: -2.67

Binder: DEIAALEAANAALAAENAALEAEIAALEG [P1-AA-1HGe-A]
- interaction score [30]: 1.57
- interaction score [31]: 1.82
- interaction score [32]: 1.54
- interaction score [33]: 2.12
- interaction score [34]: 2.24
- interaction score [35]: 1.88
- interaction score [36]: 1.85

Binder: DENAALEAKNAALKAKIAALKAENAALEG [Core_NNIN-es_EKKE]
- interaction score [38]: 1.39

Binder: DEIAALEAEIAALEAKNAALKAENAALEG [Core_IINN-es_EEKE]
- interaction score [40]: 2.21

Binder: DENAALEAKIAALKAKIAALKAENAALEG [Core_NIIN-es_EKKE]
- interaction score [41]: 2.22

Binder: DENAALEAEIAALEAKNAALKAKNAALKG [Core_NINN-es_EEKK]
- interaction score [42]: 1.6

More lines, now with the values ahead:

- interaction score [28]: 1.91
Binder: DENAALEAKNAALKAKNAALKAKIAALKG [Core_NNNI-es_EKKK]

- interaction score [29]: 2.11
Binder: DENAALEAKNAALKAENAALEAEIAALEG [Core_NNNI-es_EKEE]

- interaction score [37]: 0.00657
Binder: DENAALEAENAALEAKNAALKAENAALEG [Core_NNNN-es_EEKE]

- interaction score [39]: 0.346
Binder: DENAALEAKNAALKAENAALEAENAALEG [Core_NNNN-es_EKEE]

Source: paper PMC10397247
